Tests used:
[1] = molecular target: full-length gp120 monomer (HIV-1, isolate ; JRCSF as …, UniProt P20871); assay: ITC
[2] = molecular target: full-length gp120 pre-complexed with CD4 (HIV-1, isolate  (JRCSF as …, UniProt P20871;P01730)); assay: ITC

B1: PGT124 Fab (Fab, V domains shown)
VH: QVQLQESGPGLVRPSETLSVTCIVSGGSISNYYWTWIRQSPGKGLEWIGYISDRETTTYNPSLNSRAVISRDTSKNQLSLQLRSVTTADTAIYFCATARRGQRIYGVVSFGEFFYYYYMDVWGKGTAVTVSS
VL: SYVSPLSVALGETARISCGRQALGSRAVQWYQHKPGQAPILLIYNNQDRPSGIPERFSGTPDINFGTTATLTISGVEVGDEADYYCHMWDSRSGFSWSFGGATRLTVL
Kd [1]: 38 nM
Kd [2]: 34 nM

Reference: paper PMC4278586 (Cell, 2014)
